Experiments:
[1] = target: macroH2A1 (endogenous; collective term for macroH2A1.1 and macroH2A1.2) (mouse (endogenous in C2C12 and MEF)); test: proximity ligation; duolink PLA in situ in control C2C12 cells; high-content screening microscopy (Operetta), nuclear spots of the full cell population counted with Harmony
[2] = target: macroH2A1 (endogenous; collective term for macroH2A1.1 and macroH2A1.2) (mouse (endogenous in C2C12 and MEF)); test: proximity ligation; duolink PLA in situ in C2C12 stable knockdown lines (Scramble control, macroH2A2 knockdown); cells extracted before fixation to remove soluble Mcm2; EdU-positive cells; confocal imaging, spots per nucleus counted in FIJI

Sequence of macroH2A1 (endogenous; collective term for macroH2A1.1 and macroH2A1.2) (mouse (endogenous in C2C12 and MEF)) (Q9QZQ8 whole entry): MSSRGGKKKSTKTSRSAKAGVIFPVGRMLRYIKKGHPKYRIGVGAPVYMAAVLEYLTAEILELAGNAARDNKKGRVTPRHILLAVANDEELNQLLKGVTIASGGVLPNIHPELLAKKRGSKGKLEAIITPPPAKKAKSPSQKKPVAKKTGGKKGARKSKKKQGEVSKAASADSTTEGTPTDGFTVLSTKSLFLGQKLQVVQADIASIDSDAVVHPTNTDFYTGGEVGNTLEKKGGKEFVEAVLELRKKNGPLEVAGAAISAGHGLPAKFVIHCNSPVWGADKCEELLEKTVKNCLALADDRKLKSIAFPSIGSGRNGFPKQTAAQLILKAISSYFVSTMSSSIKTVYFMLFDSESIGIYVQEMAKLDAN

PLA spots per nucleus (spots per nucleus) [1]: 15.1
PLA spots per nucleus (control Scramble cells) (spots per nucleus) [2]: 19.8
PLA spots per nucleus (macroH2A2 depleted cells) (spots per nucleus) [2]: 18.2
Substance: Mcm2 (subunit of the Mcm DNA helicase complex) (from UniProt P97310 1-904) (natural protein)

— paper PMC11514477
